In article PMC11387628:

Key:
GFP-WIPI2b S68D (human) = assay: co-IP; GFP-Trap of GFP-WIPI2b WT or mutants from lysates of transfected HEK293A or HEK293A WIPI2 KO cells (full medium or 2 h EBSS), 2 h at 4 °C; washed in TNTE wash buffer (50 mM Tris pH 7.5, 300 mM NaCl, 5 mM EDTA, 0.1% Triton-X100); endogenous ULK1, ATG13 and ATG16L1 detected by western blot
GFP-WIPI2b S68A (human) = assay: as above

percent reduction of binding compared to WIPI2b WT (GFP-WIPI2b S68D (human)): > 60%
percent reduction of binding compared to WIPI2b WT (GFP-WIPI2b S68A (human)): 30%
Substance: endogenous ATG16L1 (from UniProt Q676U5 1-607) (natural protein)
